Values of other authors as cited in publication PMC10359924.
Where two headings read alike, the source gives them in different places.

Key:
IL-13Rα1 (Homo sapiens) [1] = target: IL-13Rα1 (Homo sapiens) (UniProt P78552)
γc (Homo sapiens) = γc (Homo sapiens) (UniProt P31785)
IL-4Rα (Homo sapiens) [2] = target: IL-4Rα (Homo sapiens) (UniProt P24394)
IL-13Rα1 (Homo sapiens) [3] = target: IL-13Rα1 (Homo sapiens) (UniProt P78552); remark: listed apart in the source
IL-4Rα (Homo sapiens) [4] = target: IL-4Rα (Homo sapiens) (UniProt P24394); remark: listed apart in the source

IL-4Rα (Homo sapiens), sequence (P24394 26-232): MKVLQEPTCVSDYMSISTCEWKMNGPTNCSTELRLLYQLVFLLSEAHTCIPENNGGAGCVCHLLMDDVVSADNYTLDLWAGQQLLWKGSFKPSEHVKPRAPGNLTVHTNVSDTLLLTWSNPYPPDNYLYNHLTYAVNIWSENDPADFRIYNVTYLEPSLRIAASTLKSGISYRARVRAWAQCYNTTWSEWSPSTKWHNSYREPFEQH
IL-4/IL-4Rα complex, sequence (P05112 25-153): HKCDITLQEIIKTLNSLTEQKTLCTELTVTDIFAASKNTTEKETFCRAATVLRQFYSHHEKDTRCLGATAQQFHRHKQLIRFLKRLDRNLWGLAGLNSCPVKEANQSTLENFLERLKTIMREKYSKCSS
IL-4/IL-4Rα complex, sequence (P24394 26-232, further chain): as the sequence (P24394 26-232) above
IL-13Rα1 (Homo sapiens), sequence (P78552 22-343): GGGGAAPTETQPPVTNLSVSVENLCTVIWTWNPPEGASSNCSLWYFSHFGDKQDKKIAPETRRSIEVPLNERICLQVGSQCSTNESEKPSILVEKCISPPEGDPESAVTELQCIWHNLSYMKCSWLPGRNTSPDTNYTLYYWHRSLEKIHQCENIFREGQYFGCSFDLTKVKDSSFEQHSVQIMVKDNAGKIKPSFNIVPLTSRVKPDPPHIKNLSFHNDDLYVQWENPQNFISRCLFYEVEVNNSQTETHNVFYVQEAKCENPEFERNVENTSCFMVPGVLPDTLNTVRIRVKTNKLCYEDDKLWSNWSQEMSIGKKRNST
IL-13, sequence (P35225 25-146): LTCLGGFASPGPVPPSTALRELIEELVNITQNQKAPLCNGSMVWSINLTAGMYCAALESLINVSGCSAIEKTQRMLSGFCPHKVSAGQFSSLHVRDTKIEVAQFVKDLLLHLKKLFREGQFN
IL-13/IL-13Rα1 complex, sequence (P35225 25-146): as above
IL-13/IL-13Rα1 complex, sequence (P78552 22-343, further chain): as the sequence (P78552 22-343) above
IL-4, sequence (P05112 25-153): as the sequence (P05112 25-153) above
γc (Homo sapiens), sequence (P31785 23-262): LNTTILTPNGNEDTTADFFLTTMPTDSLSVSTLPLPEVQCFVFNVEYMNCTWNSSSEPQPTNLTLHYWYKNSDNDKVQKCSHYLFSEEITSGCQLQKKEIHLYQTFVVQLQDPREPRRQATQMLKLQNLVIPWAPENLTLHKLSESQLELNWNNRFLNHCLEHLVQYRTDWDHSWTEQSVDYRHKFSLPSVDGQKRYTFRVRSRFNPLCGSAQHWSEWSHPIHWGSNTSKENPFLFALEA

IL-4/IL-4Rα complex (from UniProt P05112)
Kd (IL-13Rα1 (Homo sapiens) [1]): 0.487 µM
Kd (γc (Homo sapiens)): 0.559 µM

IL-4 (from UniProt P05112)
Kd (IL-4Rα (Homo sapiens) [2]): 0.001 µM

IL-13 (from UniProt P35225)
Kd (IL-13Rα1 (Homo sapiens) [3]): 0.03 µM

IL-13/IL-13Rα1 complex (from UniProt P35225)
Kd (IL-4Rα (Homo sapiens) [4]): 0.02 µM
